The target of one test is T1, CD20 (UniProt P11836 1-297, limits assumed).
T1 sequence (looked up): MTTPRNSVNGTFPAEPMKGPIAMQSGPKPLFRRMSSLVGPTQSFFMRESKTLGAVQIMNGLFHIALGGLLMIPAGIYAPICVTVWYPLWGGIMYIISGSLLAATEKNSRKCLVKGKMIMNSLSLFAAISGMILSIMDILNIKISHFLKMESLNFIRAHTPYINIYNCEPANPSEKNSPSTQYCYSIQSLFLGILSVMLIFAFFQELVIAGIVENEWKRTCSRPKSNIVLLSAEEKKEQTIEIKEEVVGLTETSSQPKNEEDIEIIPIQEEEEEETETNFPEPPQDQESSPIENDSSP
Kind of test: CD20 binding titration; legend and text call it an ELISA, but the y axis 'Mean APC-A Intensity' fits the flow cytometry cell-based binding assay on Raji cells.

For another test, the target named is T2, HER1 (UniProt P00533 25-645, limits assumed).
T2 construct: also called EGFR
The experiment in a line: single antigen ELISA, antigen coated; printed as Kd′, from a 4 parametric fit. As to the method: (§1) Briefly 96-well plates were coated overnight at […] with appropriate antigen. The plates were washed and blocked with 1% blotto (Santa Cruz Biotechnologies). Serial dilution of antibodies were added to the plate and incubated for 2 hours at room temperature. Antigen bound IgG was detected using RbαHu IgG HRP Conjugated secondary antibody (Jackson ImmunoResearch) followed by TMB substrate (KPL) addition.

For test [1], the target named is T3, HER3 (UniProt P21860 20-643, limits assumed). The description is as above. The procedure: as §1
In test [2] the target is T3, HER3. The experiment in a line: single antigen ELISA, HER3 coated, anti-human IgG HRP detection. The procedure:
as §1

Another test has as its target PD1 (UniProt Q15116 25-167, limits assumed). The experiment in a line: sandwich (dual antigen) ELISA for PD1 and VEGF bound at once; the filing does not say which antigen is coated and which is detected.
A further test addresses VEGF (UniProt P15692-4 27-191, limits assumed). The test is described as above.

Chain of VEGF (P15692 other isoform, or with tags, fused parts or gaps limits assumed): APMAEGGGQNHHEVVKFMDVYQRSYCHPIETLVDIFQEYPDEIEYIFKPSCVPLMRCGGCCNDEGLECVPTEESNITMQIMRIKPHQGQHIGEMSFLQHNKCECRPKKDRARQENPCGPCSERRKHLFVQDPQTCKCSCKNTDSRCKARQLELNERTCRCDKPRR
Chain of PD1 (Q15116 25-167 limits assumed): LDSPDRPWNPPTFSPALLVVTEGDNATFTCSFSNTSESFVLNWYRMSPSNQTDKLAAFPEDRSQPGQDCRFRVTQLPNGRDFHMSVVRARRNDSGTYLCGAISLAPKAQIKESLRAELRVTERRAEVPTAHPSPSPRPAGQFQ

B1: rituximab/obinutuzumab bispecific antibody (bispecific antibody, human IgG1, kappa)
light 1: QIVLSQSPAILSASPGEKVTMTCRASSSVSYIHWFQQKPGSSPKPWIYATSNLASGVPVRFSGSGSGTSYSLTISRVEAEDAATYYCQQWTSNPPTFGGGTKLEIKRTVAAPSVFIFPPSDEDLKSGTASVVCLLDNFYPREAKVQWKVDNALQSGNSQESVTEQDSKDSTYSLSSTLTLSKADYEKHKVYACEVTHQGLSSPVTKSFNRGEC
heavy 1: not shown
light 2: DIVMTQTPLSLPVTPGEPASISCRSSKSLLHSNGITYLYWYLQKPGQSPQLLIYQMSNLVSGVPDRFSGSGSGTDFTLKISRVEAEDVGVYYCAQNLELPYTFGGGTKVEIKRTVAAPSVFIFPPSDEKLKSGTASVVCLLKNFYPREAKVQWKVDNALQSGNSQESVTEQDSKDSTYSLSSALTLSKADYEKHKVYACEVTHQGLSSPVTKSFNRGEC
heavy 2: not shown
notes: Human IgG1/kappa bispecific with four different chains; Both arms are anti-CD20; also called Rxm/Ga101; Rxm/GA101
As to B1, the concentration for a half-maximal effect (EC50 (read off the curve)) with CD20 is approximately 2 µg/mL.

B2: DL11 WT (antibody, V domains shown)
VH: EVQLVESGGGLVQPGGSLRLSCAASGFTLSGDWIHWVRQAPGKGLEWLGEISAAGGYTDYADSVKGRFTISADTSKNTAYLQMNSLRAEDTAVYYCARESRVSFEAAMDYWGQGTLVTVSS
VL: DIQMTQSPSSLSASVGDRVTITCRASQDLATDVAWYQQKPGKAPKLLIYSASFLYSGVPSRFSGSGSGTDFTLTISSLQPEDFATYYCQQSEPEPYTFGQGTKVEIKR
notes: also called MEHD7945A
For B2, binding in the test with HER1 was characterised by a dissociation constant (Kd) of 41.5 pM.

B3: pertuzumab/DL11 bispecific antibody (bispecific antibody, human IgG1, kappa)
light 1: DIQMTQSPSSLSASVGDRVTITCKASQDVSIGVAWYQQKPGKAPKLLIYSASYRYTGVPSRFSGSGSGTDFTLTISSLQPEDFATYYCQQYYIYPYTFGQGTKVEIKRTVAAPSVFIFPPSDEDLKSGTASVVCLLDNFYPREAKVQWKVDNALQSGNSQESVTEQDSKDSTYSLSSTLTLSKADYEKHKVYACEVTHQGLSSPVTKSFNRGEC
heavy 1: not shown
light 2: DIQMTQSPSSLSASVGDRVTITCRASQDLATDVAWYQQKPGKAPKLLIYSASFLYSGVPSRFSGSGSGTDFTLTISSLQPEDFATYYCQQSEPEPYTFGQGTKVEIKRTVAAPSVFIFPPSDEKLKSGTASVVCLLKNFYPREAKVQWKVDNALQSGNSQESVTEQDSKDSTYSLSSALTLSKADYEKHKVYACEVTHQGLSSPVTKSFNRGEC
heavy 2: not shown
notes: Human IgG1/kappa bispecific with four different chains; Expressed in Freestyle 293 cells and purified by protein A, gel filtration and the cation exchange main peak; also called P/D; P/D bi-specific
On to B3, for which the Kd in the test with HER3 [1] and with HER1 was 89.8 pM throughout.

B4: Pertuzumab WT (antibody, V domains shown)
VH: EVQLVESGGGLVQPGGSLRLSCAASGFTFTDYTMDWVRQAPGKGLEWVADVNPNSGGSIYNQRFKGRFTLSVDRSKNTLYLQMNSLRAEDTAVYYCARNLGPSFYFDYWGQGTLVTVSS
VL: DIQMTQSPSSLSASVGDRVTITCKASQDVSIGVAWYQQKPGKAPKLLIYSASYRYTGVPSRFSGSGSGTDFTLTISSLQPEDFATYYCQQYYIYPYTFGQGTKVEIKR
Turning to B4, the binding result in the test with HER3 [2] is given as “no binding (tested: 1 (axis 'Ab Conc.', no unit printed))”.

B5: nivolumab/bevacizumab bispecific antibody (bispecific antibody, human IgG1, kappa)
light 1: not shown
heavy 1: not shown
light 2: DIQMTQSPSSLSASVGDRVTITCSASQDISNYLNWYQQKPGKAPKVLIYFTSSLHSGVPSRFSGSGSGTDFTLTISSLQPEDFATYYCQQYSTVPWTFGQGTKVEIKRTVAAPSVFIFPPSDEKLKSGTASVVCLLKNFYPREAKVQWKVDNALQSGNSQESVTEQDSKDSTYSLSSALTLSKADYEKHKVYACEVTHQGLSSPVTKSFNRGEC
heavy 2: not shown
notes: Human IgG1/kappa bispecific with four different chains; also called BsAb
In the case of B5, the half-maximal effective concentration (EC50 (read off the curve)) with PD1 and with VEGF was approximately 0.2 µg/mL in each case.

Source of the values: patent US20190023810A1 (MIT, published 2019).
